For four molecules, activity results are on record in patent publication US20240301385, “DNA MODIFYING ENZYMES AND ACTIVE FRAGMENTS AND VARIANTS THEREOF AND METHODS OF USE” (LIFEEDIT THERAPEUTICS, INC., published 2024).

Data set [1] concerns the target APG05840.1-L16-nAPG07433.1-USP2 (synthetic). The data set can be described thus: cell_activity; HEK293FT; PAM SEQ 152. To be noted: tags: SV40 NLS, 3xFLAG N-term; USP2, nucleoplasmin NLS C-term. An outline of the steps: (§1)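 Editing read out by next-generation sequencing (MiSeq 2×250) of PCR amplicons spanning the target site, analysed for INDELs or % cytosine conversion per position (position 1 nearest PAM).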

The target in data set [2] is T1, APG00868.1-L16-nAPG07433.1 (truncated deaminase) (synthetic).
T1 chain: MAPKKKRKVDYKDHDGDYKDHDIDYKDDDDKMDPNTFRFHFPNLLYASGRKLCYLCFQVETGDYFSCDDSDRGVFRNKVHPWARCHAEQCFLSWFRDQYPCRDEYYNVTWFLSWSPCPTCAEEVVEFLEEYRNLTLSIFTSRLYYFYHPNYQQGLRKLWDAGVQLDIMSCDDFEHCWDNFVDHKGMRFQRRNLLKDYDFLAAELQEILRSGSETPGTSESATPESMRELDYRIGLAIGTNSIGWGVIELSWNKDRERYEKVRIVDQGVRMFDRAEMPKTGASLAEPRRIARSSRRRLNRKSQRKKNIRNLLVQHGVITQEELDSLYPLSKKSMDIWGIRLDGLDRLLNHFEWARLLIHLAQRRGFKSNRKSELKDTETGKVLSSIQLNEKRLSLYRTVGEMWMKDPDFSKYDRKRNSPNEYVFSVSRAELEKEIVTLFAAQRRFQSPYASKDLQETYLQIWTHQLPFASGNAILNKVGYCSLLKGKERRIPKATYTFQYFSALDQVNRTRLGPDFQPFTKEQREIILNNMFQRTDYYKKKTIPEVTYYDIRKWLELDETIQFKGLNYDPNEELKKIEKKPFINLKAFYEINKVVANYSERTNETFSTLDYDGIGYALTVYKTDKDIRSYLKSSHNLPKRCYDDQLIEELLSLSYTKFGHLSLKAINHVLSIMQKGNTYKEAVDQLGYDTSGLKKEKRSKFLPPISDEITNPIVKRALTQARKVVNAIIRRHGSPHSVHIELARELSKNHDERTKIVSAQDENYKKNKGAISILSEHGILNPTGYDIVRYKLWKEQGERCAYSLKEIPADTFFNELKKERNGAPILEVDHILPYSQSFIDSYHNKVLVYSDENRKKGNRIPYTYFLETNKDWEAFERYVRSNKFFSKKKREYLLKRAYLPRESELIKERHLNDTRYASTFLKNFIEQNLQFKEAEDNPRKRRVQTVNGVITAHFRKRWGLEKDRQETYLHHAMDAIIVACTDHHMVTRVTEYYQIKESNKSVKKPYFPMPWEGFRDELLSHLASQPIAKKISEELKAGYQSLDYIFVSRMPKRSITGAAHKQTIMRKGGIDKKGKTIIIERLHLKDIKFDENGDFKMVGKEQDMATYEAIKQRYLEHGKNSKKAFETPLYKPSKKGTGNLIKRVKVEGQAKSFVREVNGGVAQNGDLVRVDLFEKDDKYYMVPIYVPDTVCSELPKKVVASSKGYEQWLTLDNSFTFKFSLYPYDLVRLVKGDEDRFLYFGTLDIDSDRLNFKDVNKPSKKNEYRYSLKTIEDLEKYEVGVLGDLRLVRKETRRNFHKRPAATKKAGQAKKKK
The experiment in a line: cell_activity; HEK293FT; PAM SEQ 152. Particulars: tags: SV40 NLS, 3xFLAG N-term; nucleoplasmin NLS C-term. In short, it runs like this:
as §1

B1: SGN001101 sgRNA ; SGN001101 target (ssRNA ; dsDNA)
RNA: AUAUUUUCUUUAAUGGUGCCAGGCAGUCAUAGUUCCAUUAAAGCCAAAAGUGGCUUUGAUGUUUCUAUGAUAAGGGUUUCGACCCGUGGCGUCGGGGAUCGCCUGCCCAUUGAAAUGGGCUUCUCCCCAU
DNA 1: ATATTTTCTTTAATGGTGCCAGGCA
DNA 2: TGCCTGGCACCATTAAAGAAAATAT
For B1, the values for the activity in data set [1] and in data set [2] were 12.7 % mutated reads and 20.4 % mutated reads, respectively.

B2: SGN000169 sgRNA ; SGN000169 target (ssRNA ; dsDNA)
RNA: CACAUCUCGAGCAAGACGUUGUCAUAGUUCCAUUAAAGCCAAAAGUGGCUUUGAUGUUUCUAUGAUAAGGGUUUCGACCCGUGGCGUCGGGGAUCGCCUGCCCAUUGAAAUGGGCUUCUCCCCAUUUAUU
DNA 1: CACATCTCGAGCAAGACGTT
DNA 2: AACGTCTTGCTCGAGATGTG
For the molecule B2, the activity in data set [2] came to 22.4 % mutated reads.

B3: SGN000930 sgRNA ; SGN000930 target (ssRNA ; dsDNA)
RNA: GAACAACUCAAAUGGAAAUGAAUAUGUCAUAGUUCCAUGAAAGCCAAAAGUGGCUUUGAUGUUUCUAUGAUAAGGGUUUCGGCCCGUGGCGUCGGGGAUCGCCUGCCCAUUCCGAUGGGCUUCUCCCCAUUUAUU
DNA 1: GAACAACTCAAATGGAAATGAATAT
DNA 2: ATATTCATTTCCATTTGAGTTGTTC
In turn, B3 showed an activity in data set [1] of 13.1 % mutated reads.

B4: SGN000929 sgRNA ; SGN000929 target (ssRNA ; dsDNA)
RNA: AUCUGGAGGGAACUUACAGCAUAUGGUCAUAGUUCCAUGAAAGCCAAAAGUGGCUUUGAUGUUUCUAUGAUAAGGGUUUCGGCCCGUGGCGUCGGGGAUCGCCUGCCCAUUCCGAUGGGCUUCUCCCCAUUUAUU
DNA 1: ATCTGGAGGGAACTTACAGCATATG
DNA 2: CATATGCTGTAAGTTCCCTCCAGAT
In turn, B4 displayed an activity in data set [2] of 14.6 % mutated reads.
